In patent US20240317847A1 (Bayer, published 2024):
Numbering of substitutions follows the chain as printed. Names and notes keep the numbering of the source.

B1: TPP-18068 (antibody, mouse IgG1)
heavy: EVQLLESGGGLVQPGGSLRLSCAASGFTFSSYGMHWVRQAPGKGLEWVSVISYDGSYKYYADSVKGRFTISRDNSKNTLYLQMNSLRAEDTAVYYCAAGVPDYWGQGTLVTVSSAKTTPPSVYPLAPGSAAQTNSMVTLGCLVKGYFPEPVTVTWNSGSLSSGVHTFPAVLQSDLYTLSSSVTVPSSTWPSETVTCNVAHPASSTKVDKKIVPRDCGCKPCICTVPEVSSVFIFPPKPKDVLTITLTPKVTCVVVDISKDDPEVQFSWFVDDVEVHTAQTQPREEQFNSTFRSVSELPIMHQDWLNGKEFKCRVNSAAFPAPIEKTISKTKGRPKAPQVYTIPPPKEQMAKDKVSLTCMITDFFPEDITVEWQWNGQPAENYKNTQPIMDTDGSYFVYSKLNVQKSNWEAGNTFTCSVLHEGLHNHHTEKSLSHSPGK
light: QSVLTQPPSASGTPGQRVTISCTGSSSNIGAGYDVHWYQQLPGTAPKLLIYSNNERPSGVPDRFSGSKSGTSASLAISGLRSEDEADYYCAAWDDSLNGPVFGGGTKLTVLGQPKSSPSVTLFPPSSEELETNKATLVCTITDFYPGVVTVDWKVDGTPVTQGMETTQPSKQSNNKYMASSYLTLTARAWERHSSYSCQVTHEGHTVEKSLSRADCS
notes: mIgG1, Lambda; also called WT; parent clone
B2: TPP-26324 (antibody, V domains shown)
VH: EVQLLESGGGLVQPGGSLRLSCAASGFTFSSYGMHWVRQAPGKGLEWVSVISYDGSYKYYRDSVKGRFTISRDNSKNTLYLQMNSLRAEDTAVYYCAAGVPDYWGQGTLVTVSS
VL: QSVLTQPPSASGTPGQRVTISCTGSSSNIGAGYDVHWYQQLPGTAPKLLIYSNNERPSGVPDRFSGSKSGTSASLAISGLRSEDEADYYCAAWDDSLNGPVFGGGTKLTVL
notes: constant regions not restated
B3: TPP-26325 (antibody, V domains shown)
VH: B2 VH with S31W, R61A
VL: B2 VL
notes: constant regions not restated
B4: TPP-26326 (antibody, V domains shown)
VH: B2 VH with S31Y, R61A
VL: B2 VL
notes: constant regions not restated
B5: TPP-26331 (antibody, V domains shown)
VH: B2 VH with M34G, R61A
VL: B2 VL
notes: constant regions not restated
B6: TPP-26330 (antibody, V domains shown)
VH: B2 VH with S31F, R61A
VL: B2 VL
notes: constant regions not restated
B7: TPP-26329 (antibody, V domains shown)
VH: B2 VH with Y32W, R61A
VL: B2 VL
notes: constant regions not restated
B8: TPP-26328 (antibody, V domains shown)
VH: B2 VH with R61A, G99T
VL: B2 VL
notes: constant regions not restated
B9: TPP-31277 (antibody, human IgG4, V domains shown)
VH: EVQLLESGGGLVQPGGSLRLSCAASGFTFSHYDMNWLRQAPGKGLEWVGVISYDGSNKFYADFVKGRFTISRDNSKNTLYLQMNSLRAEDTAVYYCARTPGSHFDYWGQGTLVTVSS
VL: QSVLTQPPSASGTPGQRVTISCSGSSSNIGSNAVNWYQQLPGTAPKLLIYYDDLLPSGVPDRFSGSKSGTSASLAISGLRSEDEADYYCSAWDDSLNGVVFGGGTKLTVL
notes: consecutive numbering; also called VL-N31S
B10: TPP-31283 (antibody, human IgG4, V domains shown)
VH: B9 VH
VL: B9 VL with S31N, L54Q
notes: consecutive numbering; also called VL-L54Q
B11: TPP-31282 (antibody, human IgG4, V domains shown)
VH: B9 VH
VL: B9 VL with S31N, D53N
notes: consecutive numbering; also called VL-D53N
B12: TPP-31281 (antibody, human IgG4, V domains shown)
VH: B9 VH
VL: B9 VL with S31N, D52N
notes: consecutive numbering; also called VL-D52N
B13: TPP-31292 (antibody, human IgG4, V domains shown)
VH: B9 VH with N35H
VL: B9 VL with S31N
notes: consecutive numbering; also called VH-N35H
B14: TPP-31287 (antibody, human IgG4, V domains shown)
VH: B9 VH with L5V
VL: B9 VL with S31N
notes: consecutive numbering; also called VH-L5V
B15: TPP-31295 (antibody, human IgG4, V domains shown)
VH: B9 VH with F59Y
VL: B9 VL with S31N
notes: consecutive numbering; also called VH-F59Y
B16: TPP-31297 (antibody, human IgG4, V domains shown)
VH: B9 VH
VL: B9 VL with S31N, N97Q
notes: consecutive numbering; also called VL-N97Q
B17: TPP-31288 (antibody, human IgG4, V domains shown)
VH: B9 VH with L11V
VL: B9 VL with S31N
notes: consecutive numbering; also called VH-L11V
B18: TPP-31278 (antibody, human IgG4, V domains shown)
VH: B9 VH
VL: B9 VL with S31N, A33Y
notes: consecutive numbering; also called VL-A33Y
B19: TPP-31285 (antibody, human IgG4, V domains shown)
VH: B9 VH
VL: B9 VL with S31N, S90A
notes: consecutive numbering; also called VL-S90A
B20: TPP-31286 (antibody, human IgG4, V domains shown)
VH: B9 VH with E1Q
VL: B9 VL with S31N
notes: consecutive numbering; also called VH-E1Q
B21: TPP-31296 (antibody, human IgG4, V domains shown)
VH: B9 VH with F63S
VL: B9 VL with S31N
notes: consecutive numbering; also called VH-F63S
B22: TPP-31293 (antibody, human IgG4, V domains shown)
VH: B9 VH with L37V
VL: B9 VL with S31N
notes: consecutive numbering; also called VH-L37V
B23: TPP-31289 (antibody, human IgG4, V domains shown)
VH: B9 VH with G16R
VL: B9 VL with S31N
notes: consecutive numbering; also called VH-G16R
B24: TPP-31294 (antibody, human IgG4, V domains shown)
VH: B9 VH with G49A
VL: B9 VL with S31N
notes: consecutive numbering; also called VH-G49A
B25: TPP-31290 (antibody, human IgG4, V domains shown)
VH: B9 VH with H31S
VL: B9 VL with S31N
notes: consecutive numbering; also called VH-H31S
B26: TPP-31284 (antibody, human IgG4, V domains shown)
VH: B9 VH
VL: B9 VL with S31N, L55R
notes: consecutive numbering; also called VL-L55R

target: T1, human IL-11 (human, UniProt P20809 22-199); experiment: SPR, antibody captured, IL-11 as analyte
T1 construct: bought from Invigate; also called hIL-11; hIL11
T1 sequence: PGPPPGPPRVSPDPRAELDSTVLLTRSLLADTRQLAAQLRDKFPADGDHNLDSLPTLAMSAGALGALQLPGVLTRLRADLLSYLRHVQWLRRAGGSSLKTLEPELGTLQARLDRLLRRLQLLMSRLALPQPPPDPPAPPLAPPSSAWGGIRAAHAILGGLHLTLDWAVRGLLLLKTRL
Method: (§1) Antibodies were captured via anti-mouse Fc IgGs (“Mouse antibody capture kit, Order No. BR100383, Cytiva) covalently amine coupled to a Series S CM5 sensor chip (Cytiva). The amine coupling was carried out according to the manufacturer's instructions using 1-ethyl-3-(3-dimethylaminopropyl) carbodiimide hydrochloride (EDC), N-hydroxysuccinimide (NHS) and ethanolamine HCl, pH 8.5 (“Amine Coupling Kit” BR-1000-50, Cytiva.). Human IL-11 (Invigate, e.g., lot #C121021-19), and murine IL-11 (Invigate, e.g., lot #C210819-09) were used as analytes. […] Based on that experiment an IL-11 concentration range was chosen to optimally determine kinetics and affinity of anti-IL-11 antibodies in multicycle kinetics mode. The sensor surface was regenerated with glycine pH 1.7 after each antigen injection. Obtained sensorgrams were double referenced (subtraction of reference flow cell signal and buffer injection) and were fitted to a 1:1 Langmuir binding model to derive kinetic data using the Biacore T200 Evaluation software or the Biacore Insight software.
(§2) 42 hits from the IL-11 and […] screening analysis were selected, expressed by transient transfection of mammalian cells and purified as described in Example 15. Antibodies were then tested for human IL-11 and murine IL-11 binding by SPR as described in Example 16.

Question: How did the Kd turn out when B1 was run?
Answer: 12 nM

Question: How did the Kd turn out when B2 was run?
Answer: 13 nM

Question: With B3 as the binder, how does the Kd read?
Answer: 6.4 nM

Question: Which Kd does the source give for B4 here?
Answer: 9.3 nM

Question: For B5, which Kd is on record?
Answer: 15 nM

Question: With B6 as the binder, how does the Kd read?
Answer: 9.5 nM

Question: B7 was tested. Which Kd did it give?
Answer: 14 nM

Question: With B8 as the binder, how does the Kd read?
Answer: 12 nM

target: T2, murine IL-11 (mouse, UniProt P47873 22-199); experiment: SPR, antibody captured, IL-11 as analyte
T2 construct: bought from Invigate; also called mIL-11; mIL11
T2 sequence: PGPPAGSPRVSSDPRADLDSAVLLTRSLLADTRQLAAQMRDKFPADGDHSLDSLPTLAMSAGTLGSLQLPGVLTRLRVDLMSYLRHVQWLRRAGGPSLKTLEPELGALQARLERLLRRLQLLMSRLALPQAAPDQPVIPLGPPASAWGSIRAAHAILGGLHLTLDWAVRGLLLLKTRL
Method: as §1, §2

Question: B1 was tested. Which Kd did it give?
Answer: 0.86 nM

Question: B2 was tested. Which Kd did it give?
Answer: 1.2 nM

Question: Does B3 bind?
Answer: no binding

Question: B4 was tested. Which Kd did it give?
Answer: 1.2 nM

Question: How did the Kd turn out when B5 was run?
Answer: 0.95 nM

Question: B6 was tested. Which Kd did it give?
Answer: 1.7 nM

Question: B7 was tested. Which Kd did it give?
Answer: 0.92 nM

Question: For B8, which Kd is on record?
Answer: 1.3 nM

target: T3, human IL-11 (Invigate, e.g., lot #C121021-19) (human, UniProt P20809 22-199); experiment: SPR, Biacore 8K; antibody captured on anti-human IgG Fc chip, IL-11 analyte 0-50 nM, 1:1 fit
T3 construct: Bought protein; also called hIL-11; hIL11
T3 sequence: T1 sequence
Method: (§3) Antibody binding affinity to hIL-11 (Invigate, Germany, e.g., lot #C121021-19) and mIL-11 (Invigate, Germany, e.g., lot #C210819-09) was detected using Biacore 8K. Each antibody was captured on an anti-human IgG Fc antibody immobilized CM5 sensor chip (GE). hIL-11 and mIL-11 at different concentrations (0, 5, 15.82 and 50 nM) in 1×HBS-EP+ (pH 7.4) (GE healthcare) were injected over the sensor chip at a flow rate of 30 μL/min for an association phase of 120 s, followed by 200 s dissociation phase. The chip was then regenerated by 10 mM Glycine, pH 1.5 after each binding cycle.
(§4) The sensorgrams of blank surface and buffer channel were subtracted from the test sensorgrams. The experimental data was fitted by 1:1 model using Langmiur analysis. Molecular weight of 19.3 kDa was used to calculate the molar concentration of human and mouse IL-11.

Question: With B9 as the binder, how does the Kd read?
Answer: 9.4 nM

Question: With B10 as the binder, how does the Kd read?
Answer: 48 nM

Question: With B11 as the binder, how does the Kd read?
Answer: 13 nM

Question: With B12 as the binder, how does the Kd read?
Answer: 170 nM

Question: B13 was tested. Which Kd did it give?
Answer: 11 nM

Question: Which Kd does the source give for B14 here?
Answer: 9.3 nM

Question: B15 was tested. Which Kd did it give?
Answer: 20 nM

Question: Which Kd does the source give for B16 here?
Answer: 8.7 nM

Question: With B17 as the binder, how does the Kd read?
Answer: 11 nM

Question: With B18 as the binder, how does the Kd read?
Answer: 2 nM

Question: For B19, which Kd is on record?
Answer: 7.6 nM

Question: B20 was tested. Which Kd did it give?
Answer: 9.1 nM

Question: For B21, which Kd is on record?
Answer: 9.4 nM

Question: For B22, which Kd is on record?
Answer: 4.8 nM

Question: With B23 as the binder, how does the Kd read?
Answer: 9.6 nM

Question: Which Kd does the source give for B24 here?
Answer: 11 nM

Question: For B25, which Kd is on record?
Answer: 290 nM

Question: For B26, which Kd is on record?
Answer: 11 nM

target: T4, murine IL-11 (Invigate, e.g., lot #C210819-09) (mouse, UniProt P47873 22-199); experiment: as above
T4 construct: Bought protein; biotinylated where captured on streptavidin plates; also called mIL-11; mIL11
T4 sequence: T2 sequence
Method: as §3, §4

Question: With B9 as the binder, how does the Kd read?
Answer: 12 nM

Question: How did the Kd turn out when B10 was run?
Answer: 41 nM

Question: How did the Kd turn out when B11 was run?
Answer: 19 nM

Question: B12 was tested. Which Kd did it give?
Answer: 130 nM

Question: Which Kd does the source give for B13 here?
Answer: 19 nM

Question: B14 was tested. Which Kd did it give?
Answer: 13 nM

Question: How did the Kd turn out when B15 was run?
Answer: 33 nM

Question: Which Kd does the source give for B16 here?
Answer: 14 nM

Question: Which Kd does the source give for B17 here?
Answer: 15 nM

Question: How did the Kd turn out when B18 was run?
Answer: 1.2 nM

Question: With B19 as the binder, how does the Kd read?
Answer: 18 nM

Question: With B20 as the binder, how does the Kd read?
Answer: 12 nM

Question: For B21, which Kd is on record?
Answer: 12 nM

Question: B22 was tested. Which Kd did it give?
Answer: 12 nM

Question: How did the Kd turn out when B23 was run?
Answer: 14 nM

Question: How did the Kd turn out when B24 was run?
Answer: 17 nM

Question: Which Kd does the source give for B25 here?
Answer: 300 nM

Question: How did the Kd turn out when B26 was run?
Answer: 15 nM
